Assay results published in patent US20250002585A1 (CENTESSA PHARMACEUTICALS UK, published 2025).

Molecular target: T1, mouse CD47 (SPR analyte) (mouse, UniProt Q61735 19-140, limits assumed)
T1 sequence (looked up): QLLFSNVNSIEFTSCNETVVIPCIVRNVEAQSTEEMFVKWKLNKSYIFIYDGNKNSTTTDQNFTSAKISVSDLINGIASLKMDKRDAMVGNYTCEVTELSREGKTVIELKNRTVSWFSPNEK
Test: SPR (Biacore T200), 25 C; Fab captured by anti-human Fab, mouse CD47 as analyte; steady state
Protocol: HBS-P+ supplemented with 0.1% BSA was used as running buffer as well as for ligand and analyte dilutions. […] Ligand was captured at a flow rate of 10 μl/min to give an immobilisation level (RL) of ˜ 60 RU. The surface was then allowed to stabilise. Multi-cycle kinetic data was obtained using either human or mouse CD47 as the analyte injected at a flow rate of 30 μl/min. […] For each concentration, the association phases were monitored for 180 seconds, and the dissociation phase was measured for 300 seconds. Regeneration of the sensor chip surface was conducted between cycles using 10 mM glycine pH 2.1. The signal from the reference channel Fcl (no ligand captured) was subtracted from that of Fc2-4 to correct for bulk effect and differences in non-specific binding to a reference surface. The signal from each CD47 blank run (ligand captured but no antigen) was subtracted to correct for differences in surface stability. […] Mouse CD47 binding was analysed using steady state analysis.

Kd: 165 nM
B1: positive control anti-CD47 Fab (recombinant Fab using the variable domain sequences used in LB101) (Fab, V domains shown)
VH: QVQLVQSGAEVKKPGESLKISCKGSGYTFTNYYIFWVRQMPGKGLEWMGIINPVDGDTNYNPSFQGQVTISADKSISTAYLQWSSLKASDTAMYYCARGGYTMDRWGQGTLVTVSS
VL: DIVMTQSPLSLPVTPGEPASISCRSSQSLLHSNGYNYLHWYLQKPGQSPQLLIYKVSNRFSGVPDRFSGSGSGTDFTLKISRVEAEDVGVYYCFQNTHTPRTFGGGTKVEIK
